# Assay: soluble on expression in E. coli; label from the status in PepcDB or PDB records
row,Sequence,soluble on expression in E. coli
1,MKMGENVTEYFEFAGVKNTENTLKYAIERAKLGISDIVVASSYGETAKMLFDMLEKENLNVNVVVVTYHQGFSGPDVVAMPENVKKDLEKRGATVFSGTHALSGVERGISKRFGGYGPVEVIAQTLKTLGQGVKVCYEVTVMAADAGLVSTKKEIIAIGGSSRGADSAVVIRPSNMNTFFDIELRELICMPKNKKKHEMAGDPLEHHHHHH,soluble
2,MSLKISEVATPNFLLDLDQLEKNIDKIQQICTNNNKQLWPMLKTHKSTYIARLQKNAGASGFLVGTLDEGEALIKAGFEDIMLAYPYMGEVNINRIVTMASKINLICATDNIECAKAYSEAFSKSKIECKLLIIVDCGLHRFGVEPEKVVELATEISKLENIKIVGISSHPGQVYGCSSPEGVPDVCVQEDSSMEKAYKALTDNGFNIEIVASGSTPTVESEAACKTITAVRPGNYVYYDAIQIGLGCATEDMCALTVVCTVISKNSSGYYLIDCGSKCLGLDKGAHGNSSIVGYGRVCGHPELTIDSLSEEVGKIKVNGETDIKIGDRIRIIPNHSCSTANLTSNLLGFRGDTIEKVIEVDIRENSEGHHHHHH,soluble
3,MSLGSLVIKKSIIAALVVALGIAGQSVQAESVPDETLQSEKVQTEKVQAEKTETDLFSPVEQIMNPFYPKYPPTKPATGEQAELIKRGEYLAKMGDCIACHTDVEGGTPAYAGGLPINTPFGLFYSPNITPDKETGIGNWTEKDFIRALKDGRDPKGRNYFPVFPYVYFSKITDDDARALYAYFMSIPPVKLKNKSLPFPFGVPGARFALWGWNLLFFFPQENSIEYDPDKSPEWNRGRYIVDTLGHCSMCHTPMNIFGSAKNRYYLTGSFIDGYWAPNITKYGLESASHQEVADVFKAGELINKAGPVAGPMAEVNHNSLSHLTEEDRLAIATYLKTVESEEYLGVSPSDLPPSVARGRQVYLKACLICHKDNKMGAPVIGDSASWYTRLKNSGLTGLYRHAIYGYNQMPVKGACVTCSDNDIISAVDYLLNASLTRSQWQDLASGGVKKYPASGKAVYNENCAVCHNEGKLGAPKIGDKVTWKPLIAQNMDVLIENTIRGKNHLPNGGCNHCSTDEVIEAIKYMVSQSKTEGNYSLWEGHHHHHH,not soluble
4,MVHTPLNFKFSEKREEWNLRFCRNVGVSIVELVTADASSAYVRGLMAVNGSKVYSILPFISIDAEKAKKAKFPEDRMSGVRGKVIPSVLPEIKGETILDIGCGFGTLTMELAKNNPESQVYGIDLHDSLTGQAEMNAEVLGLPNVEFRTGSAYALPFEKDSIDAVTCFLMLHHLEDIKFALFEIKRVLKKGGSLTAVEPLAHQHHHGPQLSEAEWKELFEEAGFGTETENMEGAVVLRAVKRELEHHHHHH,not soluble
5,MSLDLKRLKGSERVRKRVSVMMGSDDIRGCQHTLFEIVSNSIDRHRKGFGNYIKVIKHEDLSYTIIDHADGLPMDWNEKEHAYNWDLALKVLYAGDNYDANSTALGLNGLGLCSSQYASEFMEVISYKEDKKYTVKCKKGRPIDKETGEFICEDDDNLFTKEQGNRVLLVESNTENKTGTYIHYKPDLEVFTNIDISIDWINDKLDKQSMVNKGLKIEIYDEKEDRLYTHFYESGIKDYIKTISNDNNFSDVIYFTDKGKGRDKADKPEYDYNYEIALVFNNEINRLEYYHNSSELLQGGSTSDAISLAFTYAINEYAKNNNVFNKNESKIKFTDIQDSLICVISSFSTMTSYANQTKLSIDNKFIKDFTNQSLKEKLKLYFIENKLEADRIVNQILINKRANDKAEKSKIEIRNKEGHHHHHH,soluble
6,MSLTVLPVPDLLARALDRRAGLPGAGTTFFRAVHITETGGLWTLDVAGDAGILSLYTDLSAEAERDLAAQCGEAAGLSSVYLKRRPPEAKHLANVAREVLSPPDPLWGTARPEVTALEEGVPFLIRPGADLSVGLFSDARPARRWVRGHAAGQRVLNTFAYTCGFGLNAALAGAASVKNVDLSRKVLGWGQQNYALSGLAAPDHDFLYGDVFEWLTRLQRRGDLFDLVILDPPGFARSKAGTWRAEKDYGRLMAQASAVTAPGGEVLALLNHAGVSAGGLTHMVEQGLSTAGRRGHLTETLGPGRDYPGATHLKVQRWSLNEGGSHHHHHH,soluble
7,MGSDKIHHHHHHKETGNMPEIKKQPIASAVPDFNADSAYAYVANQVAFGPRVPNTAAHKACGDYLASELKRFGAKVYQQEAILTAYDGTKLEARNIIGSFDPENSKRVLLFAHWDSRPYSDHDPDPSKHRTPLDGADDGGSGVGALLEIARQIGQKAPGIGIDIIFFDAEDYGTPEFVTDYTPDSWCLGTQFWAKNPHVPNYTAEYGILLDMVGGKNATFFKEQQSLRAAAPIVEMVWSAARDLGYGKYFINAAGGAITDDHQYVISGRNIPSIDIINYDPESKTGFASYWHTQKDNMENIDRETLKAAGQTVLEVIYNR,not soluble
8,MKIAIINMGNNVINFKTVPSSETIYLFKVISEMGLNVDIISLKNGVYTKSFDEVDVNDYDRLIVVNSSINFFGGKPNLAILSAQKFMAKYKSKIYYLFTDIRLPFSQSWPNVKNRPWAYLYTEEELLIKSPIKVISQGINLDIAKAAHKKVDNVIEFEYFPIEQYKIHMNDFQLSKPTKKTLDVIYGGSFRSGQRESKMVEFLFDTGLNIEFFGNAREKQFKNPKYPWTKAPVFTGKIPMNMVSEKNSQAIAALIIGDKNYNDNFITLRVWETMASDAVMLIDEEFDTKHRIINDARFYVNNRAELIDRVNELKHSDVLRKEMLSIQHDILNKTRAKKAEWQDAFKKAIDL,soluble
9,MGSDKIHHHHHHMNTPLYKALIQHARRNSHSFHVPGHHNGDVFFDDAKSIFDPLLTIDVTELAGLDDLHHPSGVIKEAQELASQLYGSAESFFLVNGTTVGNLAMILSVCEPGDTILVQRNCHKSVFHAVDLSGAEPVYLAPDVDSAMHVPTHVPLGTIKEALEAYPDAKGLVLTNPTYYGHSADLTEIITEAHHYGIPVLVDEAHGAHFILGEPFPVSALKMGADIVVQSAHKTLPAMTMGSYLHLNSSCRINRDRVAEYLNRLQSSSPSYPIMASLDIARAYVQHIIEEQKLSDILQRIETLKQTFDSLTNAEAVNPANPLIITDPLKLTIRSKRGHSGYTLQSILERANIFTELADENQVLLVLPLGGKRRINAEIIRSIDEEIEKTPPDQTFVSAEWGVQPVTVLPYPKKVLHSFKKEYVSFEEAAGRLNAEDIIPYPPGIPMIMAGERITKESVQKLSRLISMKTHVQGNMKIKEKQLLVYIEEEKS,not soluble
10,MKIDRLKTDLAKAREKAAEWQARVRDLEKQITEQENLEILQVVRSVAASPEELRGLLDMIRGAKMPMAGTARTFENMDKEEI,not soluble
11,MGSDKIHHHHHHMTQEMILANATLILAGETRTGCVKISDSVIADIADGSSVPAGAVDLEGDFLSPGLVELHTDNLERHIEPRPGVDWPHAAALVAHDAELASTGITTVFDAMRVGSIPSGKGRYIKYARQLASEMLDLRTKDMLKISHFLHLRAEVCSETLAEELAEFTAEDRVGLVSLMDHTPGQRQFRDIAKLEQYVKSKRGMSDEEFINHVAQLKDLRARFGDLHEATTVAEAARFGAVLASHDDTTADQVQTSAGHGIRLAEFPTTVEAARACHAHGIKVMMGAPNLIRGGSHSGNVAARELADLELLDIVSSDYIPAALLQAAVKLGEIWGDLARGMATVTAAPAASVGLTDRGVLEVGKRADLIRFRTREGVPMLRAVYSRGARVA,not soluble
12,MGSSHHHHHHSSGLEVLFQGPHMETAIWIKNSKLPAVLVAAGAFDAAVQALSKQVGVVKLEPLKKYFTNIYEGCRTYIPSTPCELPAQLGYVRAYDDTVSEDQILPYVPGLDVVNEKMNEGYKNFKLNKPDIAIECFREAIYRITLLMVDDAEDEKLAHKILETAREYILGLSIELERRSLKEGNTVRMLELAAYFTKAKLSPIHRTNALQVAMSQHFKHKNFLQASYFAGEFLKIISSGPRAEQARKIKNKADSMASDAIPIDFDPYAKFDICAATYKPIYEDTPSVSDPLTGSKYVITEKDKIDRIAMISKIGAPASGLRIRV,soluble
13,MSYYHHHHHHLESTSLYKKAGLNNFNLHTPTRILFGKGAIAGLREQIPHDARVLITYGGGSVKKTGVLDQVLDALKGMDVLEFGGIEPNPAYETLMNAVKLVREQKVTFLLAVGGGSVLDGTKFIAAAANYPENIDPWHILQTGGKEIKSAIPMGCVLTLPATGSESNAGAVISRKTTGDKQAFHSAHVQPVFAVLDPVYTYTLPPRQVANGVVDAFVHTVEQYVTKPVDAKIHDRFAEGILLTLIEDGPKALKEPENYDVRANVMWAATQALNGLIGAGVPQDWATHMLGHELTAMHGLDHAQTLAIVLPALWNEKRDTKRAKLLQYAERVWNITEGSDDERIDAAIAATRNFFEQLGVPTHLSDYGLDGSSIPALLKKLEEHGMTQLGENHDITLDVSRRIYEAAR,soluble
14,MSLRTTASEFDNFGYGVSDSLGMRDHVSARDLFVQKFRGKENEMLLCAFDGKHGATNQGHRISLVAKNMFVRNFTKELDEIKNDDEIENALRKAFLNFNKEINGILTAKKNKSFTPVPNMSKEALELNLVDDGNAGCTVSVIYIKDKKLYSANIGDIEALLCRNNGDQFLLTEKHDPTNREEFERIRASGGYVSGGGELDGQLSVSRGVGFFNFLPHTHCGPTIRRFKITNDDDMIILGSKQLWDFISYESAVDIIRKDKNDPMVAAQKLRDFAICYGATDKICVIVLTFGNREGHHHHHH,soluble
15,MSLSKMEINKRALKENMALLACPICGEAFEFKEPQSFVCLEGHGFDIAKPGYVHLLKQAHKTKYDQALFESRKKVIASGFFEKLIERVTEIIAEKKKEQLVLYDAGCGEGSHLARVVSNLQATGVNVQAVGLDIAKEGVKQAARDYPGTSWTVADLANCPNQAETADVILNILSPSNYVEFKRLLKKDGFLLKVVPEANYLRELREFIYVDEKSSYSNESVTSRLAEKLSVEHVERVTYKAPIAKELFADFLEMTPLGWHIEADKKSELLGNPPEELTVDLQIIIANRAHLLEGHHHHHH,soluble
16,MSDTANTAVEVDEQVIEKKLDDLSIGKKRSPSKDDTSKHRLPAAERIRIWEEEQKAKIVLTAGLQGKVKWYSVLRRYGFISRSDGEKDVFVHQTAISKSDTEKFYLRTLADEEEVLFDLVDGKNGPEAANVTGPAGVNVSGSKYRHQLLSRFRKNRKPKIVVGEDFDSKETEKLVEAPAVAMEKKKQRKQRKNKNRKQKDQKGAGDAADSSATTESLGTSSETASPDSKSCTKIISEEAGLSKIDRCDSALDDAGLGAQLIDAQI,soluble
17,MSAVLTAEDTLVLASTATPVEMELIMGWLGQQRARHPDSKFDILKLPPRNAPPAALTALVEQLEPGFASSPQSGEDRSIVPVRVIWLPPADRSRAGKVAALLPGRDPYHPSQRQQRRILRTDPRRARVVAGESAKVSELRQQWRDTTVAEHKRDFAQFVSRRALLALARAEYRILGPQYKSPRLVKPEMLASARFRAGLDRIPGATVEDAGKMLDELSTGWSQVSVDLVSVLGRLASRGFDPEFDYDEYQVAAMRAALEAHPAVLLFSHRSYIDGVVVPVAMQDNRLPPVHMFGGINLSFGLMGPLMRRSGMIFIRRNIGNDPLYKYVLKEYVGYVVEKRFNLSWSIEGTRSRTGKMLPPKLGLMSYVADAYLDGRSDDILLQGVSICFDQLHEITEYAAYARGAEKTPEGLRWLYNFIKAQGERNFGKIYVRFPEAVSMRQYLGAPHGELTQDPAAKRLALQKMSFEVAWRILQATPVTATGLVSALLLTTRGTALTLDQLHHTLQDSLDYLERKQSPVSTSALRLRSREGVRAAADALSNGHPVTRVDSGREPVWYIAPDDEHAAAFYRSSVIHAFLETSIVELALAHAKHAEGDRVAAFWAQAMRLRDLLKFDFYFADSTAFRANIAQEMAWHQDWEDHLGVGGNEIDAMLYAKRPLMSDAMLRVFFEAYEIVADVLRDAPPDIGPEELTELALGLGRQFVAQGRVRSSEPVSTLLFATARQVAVDQELIAPAADLAERRVAFRRELRNILRDFDYVEQIARNQFVAREFKARQGRDRILEHHHHHH,not soluble

# — the DeepSol protein solubility set
